Positions count from the first letter of the chain named. Where no end group is shown, it is not given here. fluorescein = fluorescein, a fluorescent label on the peptide N-terminus

Assay in all cases: fluorescence polarisation
One assay addresses T1, DegS D221A (E. coli, UniProt P0AEE3 27-355, D221A).
T1 sequence (looked up): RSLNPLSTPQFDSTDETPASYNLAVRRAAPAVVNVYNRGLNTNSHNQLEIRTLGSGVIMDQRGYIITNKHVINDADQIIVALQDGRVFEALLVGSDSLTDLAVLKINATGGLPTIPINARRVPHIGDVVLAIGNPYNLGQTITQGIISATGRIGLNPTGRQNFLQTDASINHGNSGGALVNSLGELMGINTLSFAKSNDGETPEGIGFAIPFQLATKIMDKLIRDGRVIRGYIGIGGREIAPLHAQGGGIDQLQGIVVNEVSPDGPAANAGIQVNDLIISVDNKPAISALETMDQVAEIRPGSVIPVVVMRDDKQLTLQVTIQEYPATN

In a further assay the target is T2, DegS P229A (E. coli, UniProt P0AEE3 27-355, P229A).
T2 sequence (looked up): T1 sequence (looked up) with A195D, P203A

Another assay addresses T3, DegS I232A (E. coli, UniProt P0AEE3 27-355, I232A).
T3 sequence (looked up): T1 sequence (looked up) with A195D, I206A

For another assay, the target named is T4, DegS P161A/H198P (E. coli, UniProt P0AEE3 27-355, P161A | H198P).
T4 sequence (looked up): T1 sequence (looked up) with P135A, H172P, A195D

A further assay concerns the target T5, DegS Q187A/H198P (E. coli, UniProt P0AEE3 27-355, Q187A | H198P).
T5 sequence (looked up): T1 sequence (looked up) with Q161A, H172P, A195D

The target of another assay is T6, DegS Y162A (E. coli, UniProt P0AEE3 27-355, Y162A).
T6 sequence (looked up): T1 sequence (looked up) with Y136A, A195D

The term Kd denotes the concentration at which binding is half-saturated. A high value points to a looser complex. For fluorescein-DNRDGNVYYF [fluorescent OMP peptide fluorescein-DNRDGNVYYF], the Kd was 3.2 ± 0.2 µM with DegS D221A; 1.6 ± 0.2 µM with DegS P229A; 2.2 ± 0.3 µM in the assay with DegS I232A; 2.5 ± 0.4 µM with DegS P161A/H198P; 1.5 ± 0.1 µM with DegS Q187A/H198P; 1.9 ± 0.4 µM with DegS Y162A.

(Values after paper PMC4351158 (Structure (London, England : 1993), 2015).)
